Positions count from the first letter of the chain named. Where two headings read alike, the source gives them in different places.
What was measured:
Test in all cases: SPR, scFv captured via anti-V5, RBD as analyte
[1] = target: MERS Receptor Binding Domain (RBD) protein (MERS coronavirus, UniProt K9N5Q8 367-606)
[2] = target: T1, SARS-CoV-2 Receptor Binding Domain (RBD) protein (SARS-CoV-2, UniProt P0DTC2 319-541)
[3] = target: SARS-CoV-1 Receptor Binding Domain (RBD) protein (SARS-CoV-1, UniProt P59594 306-527)
[4] = target: T1, SARS-CoV-2 Receptor Binding Domain …; remark: listed apart in the source

B1: COVID19_P19_B04 (scFv, V domains shown)
VH: EVQLVESGGGLVQPGGSLRLSCAASGITFNNYAMTWVRQAPGKGLEWVSGISGSGGSTYYADSVKGRFTISRDNSRNTLYLQMNSLRAEDTAVYYCVTQRDNPVDYFPHYFHDMDVWGQGTLVTVSS
VL: DIVMTQSPLSLPVTPGEPASISCRSSQSLLYSDGDTYLDWYLQKPGQSPQLLIYLGSIRAPGVPDRFSGSGSGTDFTLKISRVEAEDVGVYYCMQALQVPWTFGGGTKVEIKR
What does the source list for B1?
binding result [1]: no binding (tested: up to 300 nM); Kd [2]: < 50 nM; binding result [3]: no binding (tested: up to 300 nM); Kd [4]: 22 nM; koff [4]: 0.00795 s⁻¹; kon [4]: 361000 M⁻¹ s⁻¹

B2: COVID19_P07_H01 (scFv, V domains shown)
VH: EVQLVESGGGLVQPGGSLRLSCAASGFTFRSYAMHWVRQAPGKGLEWVAVISSDGRNKFYADSVKGRFTISRDNSKNTLYLQMNSLRAEDTAVYYCVTNMDNSRDYFPHYFHDMDVWGQGTLVTVSS
VL: B1 VL with Y31H, D33N, D35N, T36N, L38M, G56A, I58Q, P61S, V99R, W101L
Which results are given for B2?
binding result [1]: no binding (tested: up to 300 nM); Kd [2]: < 50 nM; binding result [3]: no binding (tested: up to 300 nM); Kd [4]: 2.9 nM; koff [4]: 5.7e-05 s⁻¹; kon [4]: 19900 M⁻¹ s⁻¹

B3: COVID19_P19_B08 (scFv, V domains shown)
VH: EVQLVESGGGLVQPGGSLRLSCAASGFTFSDHYMDWVRQAPGKGLEWVAAIGASGESTYYADSVKGRFTISRDNSKNTLYLQMNSLRAEDTAVYYCVTQRDNSRDYFPLWFHDMDVWGQGTLVTVSS
VL: B1 VL with A96S, L97I, V99T
What does the source list for B3?
binding result [1]: no binding (tested: up to 300 nM); Kd [2]: < 50 nM; binding result [3]: no binding (tested: up to 300 nM); Kd [4]: 32.7 nM; koff [4]: 0.00685 s⁻¹; kon [4]: 209000 M⁻¹ s⁻¹

B4: COVID19_P08_G07 (scFv, V domains shown)
VH: EVQLVESGGGLVQPGGSLRLSCAASGFTFSTYGMHWVRQAPGKGLEWVSTISGNGVSTSYADSVKGRFTISRDNSKNTLYLQMNSLRAEDTAVYYCVTNMDNSRDYFPHYFHDMDVWGQGTLVTVSS
VL: DIVMTQSPLSLPVTPGEPASISCRSSQSLVYSDGYTYLNWYLQKPGQSPQLLIYQVSNRASGVPDRFSGSGSGTDFTLKISRVEAEDVGVYYCMQALQTPALTFGGGTKVEIKR
Does B4 bind [1]?
Result: no binding (tested: up to 300 nM)

And the Kd [2]?
The Kd was less than 50 nM.

Does B4 bind [3]?
Result: no binding (tested: up to 300 nM)

What about the Kd [4] of the same binder?
The Kd was 10.6 nM.

What about the koff [4] of the same binder?
The koff was 0.00072 s⁻¹.

And the kon [4]?
Its kon is 68000 M⁻¹ s⁻¹.

B5: COVID19_P08_C08 (scFv, V domains shown)
VH: B2 VH with S31N, A49S, V50A, I51V, D54S, R56G, N57S, K58P, F59Y
VL: DIVMTQSPLSLPVTPGEPASISCRSSQSLVHSDGDNYLNWYLQKPGQSPQLLIYSGSYRASGVPDRFSGSGSGTDFTLKISRVEAEDVGVYYCMQGTHWPLTFGGGTKVEIKR
What does the source list for B5?
binding result [1]: no binding (tested: up to 300 nM); Kd [2]: < 50 nM; binding result [3]: no binding (tested: up to 300 nM); Kd [4]: 1.8 nM; koff [4]: 5.7e-05 s⁻¹; kon [4]: 32000 M⁻¹ s⁻¹

B6: COVID19_P08_C12 (scFv, V domains shown)
VH: EVQLVESGGGLVQPGGSLRLSCAASGFTFNNYALHWVRQAPGKGLEWVSGVSWNGSRTHYADSVKGRFTISRDNSKNTLYLQMNSLRAEDTAVYYCVTNLDNSRDYFPHYFHDMDVWGQGTLVTVSS
VL: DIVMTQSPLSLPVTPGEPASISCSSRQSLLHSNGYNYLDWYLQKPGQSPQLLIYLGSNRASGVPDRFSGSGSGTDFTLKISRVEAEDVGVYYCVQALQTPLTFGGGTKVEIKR
Which results are given for B6?
binding result [1]: no binding (tested: up to 300 nM); Kd [2]: < 50 nM; binding result [3]: no binding (tested: up to 300 nM); Kd [4]: 1.1 nM; koff [4]: 5.7e-05 s⁻¹; kon [4]: 53000 M⁻¹ s⁻¹
